This note sets out measurements from patent US20260028422A1 (CONCEPT TO MEDICINE BIOTECH, published 2026).

In one assay the target is T1, human MerTK-his protein (human, UniProt Q12866 21-505).
T1 construct: extracellular domain; also called hMerTK-His; human MerTK protein
T1 sequence (looked up): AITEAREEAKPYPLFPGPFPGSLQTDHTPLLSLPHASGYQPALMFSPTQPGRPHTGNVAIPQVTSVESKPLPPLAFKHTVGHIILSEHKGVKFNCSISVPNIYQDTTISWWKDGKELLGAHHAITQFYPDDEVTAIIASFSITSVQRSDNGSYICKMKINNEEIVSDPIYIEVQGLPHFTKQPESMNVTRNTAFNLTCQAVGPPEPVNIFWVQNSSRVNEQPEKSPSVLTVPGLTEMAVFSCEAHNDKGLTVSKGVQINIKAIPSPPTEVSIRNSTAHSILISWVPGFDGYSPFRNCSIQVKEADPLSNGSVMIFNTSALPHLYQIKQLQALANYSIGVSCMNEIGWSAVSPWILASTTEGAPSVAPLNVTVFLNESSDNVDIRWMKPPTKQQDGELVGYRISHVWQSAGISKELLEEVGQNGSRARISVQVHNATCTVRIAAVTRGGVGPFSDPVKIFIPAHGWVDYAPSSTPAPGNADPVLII
The experiment in a line: ELISA, plate coated with human MerTK-his, OD 450nm. The protocol:
To evaluate the binding activity, the chimeric mAbs were subjected to ELISA test. Briefly, 96-well plates were coated with human or cyno MerTK-his protein at 2 μg/mL in PBS, 100 μL/well at 4° C. overnight, then blocked with 150 μL/well of 1% BSA. Five-fold dilutions of MerTK antibodies starting from 20 nM were added to each well and incubated for 1 hour at room temperature. The plates were washed with PBS/Tween-20 and then incubated with goat anti-human IgG Fe antibody conjugated with Horse Radish Peroxidase (HRP) for 30 minutes (mins) at room temperature. After washing, the plates were developed with TMB substrate and subsequent stop solution was added to complete the reaction. The signal from each well was read by spectrophotometer at OD 450 nm.
To evaluate the antigen binding activity, the humanized antibodies were subjected to ELISA test as described before.
For orientation: ELISA stands for enzyme-linked immunosorbent assay.

Assay [1] concerns the target T2, human MerTK expressed on cells (human, UniProt Q12866 21-999).
T2 construct: whole, on cells; also called CHO-K1-hMerTK; CHO-K1-MerTK
T2 sequence (looked up): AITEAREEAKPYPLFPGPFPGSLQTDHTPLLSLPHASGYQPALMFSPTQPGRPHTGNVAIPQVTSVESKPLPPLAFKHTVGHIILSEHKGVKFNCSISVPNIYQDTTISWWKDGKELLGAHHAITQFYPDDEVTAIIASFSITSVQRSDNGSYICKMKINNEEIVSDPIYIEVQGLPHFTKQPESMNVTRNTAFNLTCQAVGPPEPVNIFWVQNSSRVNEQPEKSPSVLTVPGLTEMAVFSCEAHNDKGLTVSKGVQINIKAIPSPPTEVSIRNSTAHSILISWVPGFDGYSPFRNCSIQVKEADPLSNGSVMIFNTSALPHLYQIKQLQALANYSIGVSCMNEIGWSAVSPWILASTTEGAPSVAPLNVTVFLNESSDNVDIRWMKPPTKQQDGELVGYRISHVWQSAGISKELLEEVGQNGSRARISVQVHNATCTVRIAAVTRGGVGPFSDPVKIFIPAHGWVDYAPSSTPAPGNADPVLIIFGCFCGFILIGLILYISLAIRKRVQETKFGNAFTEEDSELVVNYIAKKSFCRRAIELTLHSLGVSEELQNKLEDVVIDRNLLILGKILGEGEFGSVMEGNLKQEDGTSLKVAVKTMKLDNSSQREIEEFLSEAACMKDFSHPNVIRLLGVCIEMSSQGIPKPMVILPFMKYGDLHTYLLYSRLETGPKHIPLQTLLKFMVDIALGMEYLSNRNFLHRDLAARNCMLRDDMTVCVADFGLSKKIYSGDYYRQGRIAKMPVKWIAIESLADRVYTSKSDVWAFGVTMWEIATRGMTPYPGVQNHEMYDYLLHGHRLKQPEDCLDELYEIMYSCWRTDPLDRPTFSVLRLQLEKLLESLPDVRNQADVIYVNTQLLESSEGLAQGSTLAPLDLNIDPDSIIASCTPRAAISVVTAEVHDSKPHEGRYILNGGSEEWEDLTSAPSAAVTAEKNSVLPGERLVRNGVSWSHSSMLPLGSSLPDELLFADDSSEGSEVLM
Nature of the assay: FACS on CHO-K1 cells overexpressing human MerTK, MFI (AF488).

B1: 265F11B5 chimeric monoclonal antibody (antibody, V domains shown)
VH: QVQLQQSGPELVKPGASVRLSCKASGYTFTTYDINWVKQRPGLGLEWIGWIYPRDGYTKYNEKFKGRATLAVDTSSSTAYMELHSLTSEDSAVYFCTRGYYDNLYYFDYWGQGTTLTVSS
VL: EIVLTQSPTTVAASPGEKITITCSASSIISSNYFHWYQQRPGFSPKLLIYRTSNLASGVPARFSGSGSGTSYSLTIGTMEAEDVATYYCQQGRSVPLTFGAGTKLELK
Usually EC50 stands for the concentration that produces a half-maximal response. A high value points to a need for much substance. Take B1: the concentration for a half-maximal effect (EC50) was found to be 0.098 nM in the assay with human MerTK-his protein and 0.23 nM in assay [1].
